Test results: publication PMC5404824, “Engineering Nucleotide Specificity of Succinyl-CoA Synthetase in Blastocystis: The Emerging Role of Gatekeeper Residues” (Biochemistry, 2016)

System: Nc1nc2c(ncn2[C@@H]2O[C@H](COP(=O)(O)OP(=O)(O)OP(=O)(O)O)[C@@H](O)[C@H]2O)c(=O)[nH]1
Assay: purified protein
Assay type: biochemical, Blastocystis hominis
Details: 129 μM CoA, 10 mM succinate, 50 mM KCl, 10 mM MgCl2, 50 mM Tris-HCl pH 7.4, 30 nM enzyme

| Substance | Km | kcat | kcat/Km |
| --- | --- | --- | --- |
| Blastocystis SCS (succinyl-CoA synthetase, SCSα + SCSβ) (Blastocystis sp. ATCC 50177/Nand II; K128D/K60E) | 143 ± 17 µM | 0.0195 ± 0.001 s⁻¹ | 136 M⁻¹ s⁻¹ |
| Blastocystis SCS (succinyl-CoA synthetase, SCSα + SCSβ) (Blastocystis sp. ATCC 50177/Nand II; K128D/K60E/L241F/V127L) | 82 ± 12 µM | 0.0078 ± 0.0004 s⁻¹ | 96 M⁻¹ s⁻¹ |
